Series [1] has as its target GIRK4 S143T mutant channel. The series is described as follows: cell-based or functional assay.
The target in series [2] is GIRK2 L257Y mutant channel. As to the kind of experiment: cell-based or functional assay.
The target of series [3] is GIRK4* L252A mutant channel. As to the kind of experiment: cell-based or functional assay.
The target of series [4] is GIRK2 L257W mutant channel. The series is described as follows: cell-based or functional assay.
Series [5] deals with GIRK2c channel, wild type. As to the kind of experiment: cell-based or functional assay.
The target of series [6] is GIRK4* L252W mutant channel. As to the kind of experiment: cell-based or functional assay.
Series [7] deals with GIRK2 L257A mutant channel. The series is described as follows: cell-based or functional assay.
Series [8] deals with GIRK2 Y349W mutant channel. As to the kind of experiment: cell-based or functional assay.
The target of series [9] is GIRK4* L252Y mutant channel. The series is described as follows: cell-based or functional assay.
Series [10] concerns the molecule itself. The series is described as follows: S200 Sepharose size chromatography; self-association of the cytoplasmic domains into a tetramer. As to the method: (§1) Kir2.1 mutants were grown in Terrific Broth at 37 degrees C. to the OD600 of 0.6, then induced with 0.5 mM IPTG for 3 hours prior to harvesting. Cells were lysed in 0.5M NaCl, 20 mM Tris-HCl pH 8.5, 10% glycerol, 7 mM beta-mercaptoethanol, 0.1 mM PMSF, 10 mM imidazole and 0.5 mg lysozyme per 100 ml of lysate. The lysate was sonicated and spun at 94,000 G for 45 minutes. The supernatant was loaded on a 2 ml-packed nickel affinity column (Qiagen), washed with 5 ml of lysis buffer without PMSF, and then eluted with lysis buffer with 250 mM imidazole. Thrombin was added to the eluted fraction and it was dialyzed against the sizing column buffer, 150 mM NaCl, 5 mM Tris-HCl pH 8.5, 2 mM DTT. Kir2.1 was then purified by S200 Sepharose chromatography and concentrated to 10 mg/ml with 10 mM DTT. Kir2.1 proteins were loaded on a G4000PWXL HPLC column (TOSOH) equilibrated in 150 mM NaCl, 5 mM Tris-HCl 8.5, 2 mM DTT. Molecular weight (MW) of the tetramer complex was calculated by Minidawn static light scattering requiring the use of the extinction coefficient of the monomer. The extinction coefficient was derived from the primary sequence of the protein. […]

Series [11] deals with the molecule itself. The series is described as follows: sizing column; self-association into a tetramer. As to the method: Kir2.1 mutants were grown in Terrific Broth at 37 degrees C. to the OD600 of 0.6, then induced with 0.5 mM IPTG for 3 hours prior to harvesting. Cells were lysed in 0.5M NaCl, 20 mM Tris-HCl pH 8.5, 10% glycerol, 7 mM beta-mercaptoethanol, 0.1 mM PMSF, 10 mM imidazole and 0.5 mg lysozyme per 100 ml of lysate. The lysate was sonicated and spun at 94,000 G for 45 minutes. The supernatant was loaded on a 2 ml-packed nickel affinity column (Qiagen), washed with 5 ml of lysis buffer without PMSF, and then eluted with lysis buffer with 250 mM imidazole. Thrombin was added to the eluted fraction and it was dialyzed against the sizing column buffer, 150 mM NaCl, 5 mM Tris-HCl pH 8.5, 2 mM DTT. Kir2.1 was then purified by S200 Sepharose chromatography and concentrated to 10 mg/ml with 10 mM DTT. Kir2.1 proteins were loaded on a G4000PWXL HPLC column (TOSOH) equilibrated in 150 mM NaCl, 5 mM Tris-HCl 8.5, 2 mM DTT. Molecular weight (MW) of the tetramer complex was calculated by Minidawn static light scattering requiring the use of the extinction coefficient of the monomer. The extinction coefficient was derived from the primary sequence of the protein.
To understand the nature of the mildly-aggregating R218Q, it was reasoned that changing the Thr309 to a positive charge residue would restore a polar interaction similar to the native one present in Kir2.1 between Arg218 and Thr309 (FIG. 2C). […]

Series [12] deals with the molecule itself. As to the kind of experiment: size chromatography of the cytoplasmic domains; homotetramer. As to the method: as §1
Series [13] deals with the molecule itself. As to the kind of experiment: X-ray crystal structure at 2.0 A; homotetramer.

Regarding G-protein beta-gamma subunits, the Carb activation as percent of basal current, whole-cell patch clamp (% of basal current) in series [1] stood at 231. For the same molecule, the percent change from basal current on Carbachol, whole-cell patch clamp in [2] came out at 38%; in series [4], 12%; in series [7], 36%; in [8], 56%. Moreover, the Carb activation as percent of basal current, whole-cell patch clamp in series [3] turned out to be 51%; in [6], 23%; in series [9], 110%. The same molecule registered a percent change from Ba++ sensitive basal current on 5 uM Carbachol (M2R co-transfected), whole-cell patch clamp in series [5] of 928%.

B1: Kir2.1L-E303K (other, mouse, UniProt P35561 44-64, looked up)
chain: RSRFVKKDGHCNVQFINVGEKRNETLVFSHNAVIAMRDGKLCLMWRVGNLRKSHLVEAHVRAQLLKSRITSEGEYIPLDQIDINVGFDSGIDRIFLVSPITIVHEIDEDSPLYDLSKQDIDNADFEIVVILEGMVKATAMTTQCRSSYLANEILWGHRYEPVLFEEKHYYKVDYSRFHKTYEVPNTPLCSARDLAEKKYILSNANSFCYENEVALTSKEEEEDSENGVPESTSTDSPPGIDLHNQASVPLEPRPLRRESEI
notes: range 44-64;range 189-428; Same construct as Kir2.1L; also called E303KL
Take B1: in [10], the binding result is reported as “binds”.

B2: Kir2.1L-R218Q/T309K (other, mouse, UniProt P35561 44-64, looked up)
chain: RSRFVKKDGHCNVQFINVGEKRNETLVFSHNAVIAMRDGKLCLMWRVGNLQKSHLVEAHVRAQLLKSRITSEGEYIPLDQIDINVGFDSGIDRIFLVSPITIVHEIDEDSPLYDLSKQDIDNADFEIVVILEGMVEATAMTKQCRSSYLANEILWGHRYEPVLFEEKHYYKVDYSRFHKTYEVPNTPLCSARDLAEKKYILSNANSFCYENEVALTSKEEEEDSENGVPESTSTDSPPGIDLHNQASVPLEPRPLRRESEI
notes: range 44-64;range 189-428; Same construct as Kir2.1L; also called R218Q/T309KL
For the molecule B2, the binding result in series [11] was “binds”.

B3: Kir2.1L-R218Q/T309R (other, mouse, UniProt P35561 44-64, looked up)
chain: RSRFVKKDGHCNVQFINVGEKRNETLVFSHNAVIAMRDGKLCLMWRVGNLQKSHLVEAHVRAQLLKSRITSEGEYIPLDQIDINVGFDSGIDRIFLVSPITIVHEIDEDSPLYDLSKQDIDNADFEIVVILEGMVEATAMTRQCRSSYLANEILWGHRYEPVLFEEKHYYKVDYSRFHKTYEVPNTPLCSARDLAEKKYILSNANSFCYENEVALTSKEEEEDSENGVPESTSTDSPPGIDLHNQASVPLEPRPLRRESEI
notes: range 44-64;range 189-428; Same construct as Kir2.1L; also called R218Q/T309RL
Regarding B3, in [11], the binding result was “binds”.

B4: Kir2.1L-G300V (other, mouse, UniProt P35561 44-64, looked up)
chain: RSRFVKKDGHCNVQFINVGEKRNETLVFSHNAVIAMRDGKLCLMWRVGNLRKSHLVEAHVRAQLLKSRITSEGEYIPLDQIDINVGFDSGIDRIFLVSPITIVHEIDEDSPLYDLSKQDIDNADFEIVVILEVMVEATAMTTQCRSSYLANEILWGHRYEPVLFEEKHYYKVDYSRFHKTYEVPNTPLCSARDLAEKKYILSNANSFCYENEVALTSKEEEEDSENGVPESTSTDSPPGIDLHNQASVPLEPRPLRRESEI
notes: range 44-64;range 189-428; Same construct as Kir2.1L; also called G300VL
In the case of B4, the binding result in series [12] was “binds”.

B5: Kir2.1S-R218Q/T309K, N-terminal (44-64) fused to C-terminal (189-371) of mouse Kir2.1 (other, UniProt P35561 44-64, looked up)
chain: RSRFVKKDGHCNVQFINVGEKRNETLVFSHNAVIAMRDGKLCLMWRVGNLQKSHLVEAHVRAQLLKSRITSEGEYIPLDQIDINVGFDSGIDRIFLVSPITIVHEIDEDSPLYDLSKQDIDNADFEIVVILEGMVEATAMTKQCRSSYLANEILWGHRYEPVLFEEKHYYKVDYSRFHKTYEVPNTPLCSARDLAEKKYILSNA
notes: range 44-64;range 189-371; Crystallised form (2.0 A, space group C2, one tetramer per asymmetric unit); also called R218Q/T309KS; R218Q/T309Ks
For B5, the binding result in series [13] is “binds”.

The values are drawn from US20090148861A1 (SALK INSTITUTE, published 2009).
